Here are results for 41 molecules from US20120219562A1 (AbbVie / Abbott, published 2012).

Positions count from the first letter of the chain named.

T1: human interleukin 12 (p70 heterodimer of p35 and p40) (human, UniProt P29459 23-219; P29460 23-328)
T1 construct: Recombinant human IL-12; also called hIL-12; IL-12
T1 sequence (looked up) 1: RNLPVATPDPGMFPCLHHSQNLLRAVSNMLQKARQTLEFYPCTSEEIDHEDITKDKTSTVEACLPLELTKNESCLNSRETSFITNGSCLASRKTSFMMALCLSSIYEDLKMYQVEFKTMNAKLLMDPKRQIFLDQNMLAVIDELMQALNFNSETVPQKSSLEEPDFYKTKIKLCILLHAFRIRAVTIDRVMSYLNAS
T1 sequence (looked up) 2: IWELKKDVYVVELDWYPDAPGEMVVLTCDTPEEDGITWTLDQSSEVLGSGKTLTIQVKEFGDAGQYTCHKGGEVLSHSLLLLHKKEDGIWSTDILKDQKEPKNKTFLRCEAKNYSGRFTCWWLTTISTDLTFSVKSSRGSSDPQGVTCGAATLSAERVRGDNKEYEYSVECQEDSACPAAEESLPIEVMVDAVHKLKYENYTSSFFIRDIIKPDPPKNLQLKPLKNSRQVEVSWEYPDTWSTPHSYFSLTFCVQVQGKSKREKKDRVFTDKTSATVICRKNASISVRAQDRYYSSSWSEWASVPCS

B1: SEQ ID NO: 481 (Y61, S at L31) (antibody, V domains shown)
VH: QVQLVQSGGGVVQPGRSLRLSCAASGFTFSSYGMHWVRQAPGKGLEWVAFIRYDGSNKYYADSVKGRFTISRDNSKNTLYLQMKSLRAEDTAVYYCKTHGSHDNWGQGTMVTVSS
VL: SYVLTQPPSVSGTPGQRVTISCSGGRSNIGSSTVKWYQQLPGTAPKLLIYGNDQRPSGVPDRFSGSKSGTSASLAITGVQAEDEADYYCQSYDRGTHPALLFGTGTKVTVLG
B2: SEQ ID NO: 502 (Y61, V at L32) (antibody, V domains shown)
VH: B1 VH
VL: B1 VL with S32N, T33V
B3: SEQ ID NO: 496 (Y61, K at L32) (antibody, V domains shown)
VH: B1 VH
VL: B1 VL with S32N, T33K
B4: SEQ ID NO: 483 (Y61, H at L31) (antibody, V domains shown)
VH: B1 VH
VL: B1 VL with S32H
B5: SEQ ID NO: 490 (Y61, I at L31) (antibody, V domains shown)
VH: B1 VH
VL: B1 VL with S32I
B6: SEQ ID NO: 488 (Y61, G at L31) (antibody, V domains shown)
VH: B1 VH
VL: B1 VL with S32G
B7: SEQ ID NO: 499 (Y61, Q at L32) (antibody, V domains shown)
VH: B1 VH
VL: B1 VL with S32N, T33Q
B8: SEQ ID NO: 484 (Y61, K at L31) (antibody, V domains shown)
VH: B1 VH
VL: B1 VL with S32K
B9: SEQ ID NO: 482 (Y61, Y at L31) (antibody, V domains shown)
VH: B1 VH
VL: B1 VL with S32Y
B10: SEQ ID NO: 503 (Y61, L at L32) (antibody, V domains shown)
VH: B1 VH
VL: B1 VL with S32N, T33L
B11: SEQ ID NO: 487 (Y61, T at L31) (antibody, V domains shown)
VH: B1 VH
VL: B1 VL with S32T
B12: SEQ ID NO: 491 (Y61, D at L32) (antibody, V domains shown)
VH: B1 VH
VL: B1 VL with S32N, T33D
B13: SEQ ID NO: 493 (Y61, S at L32) (antibody, V domains shown)
VH: B1 VH
VL: B1 VL with S32N, T33S
B14: SEQ ID NO: 497 (Y61, R at L32) (antibody, V domains shown)
VH: B1 VH
VL: B1 VL with S32N, T33R
B15: SEQ ID NO: 492 (Y61, C at L32) (antibody, V domains shown)
VH: B1 VH
VL: B1 VL with S32N, T33C
B16: SEQ ID NO: 498 (Y61, N at L32) (antibody, V domains shown)
VH: B1 VH
VL: B1 VL with S32N, T33N
B17: SEQ ID NO: 495 (Y61, H at L32) (antibody, V domains shown)
VH: B1 VH
VL: B1 VL with S32N, T33H
B18: SEQ ID NO: 501 (Y61, A at L32) (antibody, V domains shown)
VH: B1 VH
VL: B1 VL with S32N, T33A
B19: SEQ ID NO: 505 (Y61, P at L32) (antibody, V domains shown)
VH: B1 VH
VL: B1 VL with S32N, T33P
B20: SEQ ID NO: 504 (Y61, I at L32) (antibody, V domains shown)
VH: B1 VH
VL: B1 VL with S32N, T33I
B21: SEQ ID NO: 486 (Y61, Q at L31) (antibody, V domains shown)
VH: B1 VH
VL: B1 VL with S32Q
B22: SEQ ID NO: 494 (Y61, Y at L32) (antibody, V domains shown)
VH: B1 VH
VL: B1 VL with S32N, T33Y
B23: SEQ ID NO: 489 (Y61, M at L31) (antibody, V domains shown)
VH: B1 VH
VL: B1 VL with S32M
B24: SEQ ID NO: 515 (Y61, Q at L50) (antibody, V domains shown)
VH: B1 VH
VL: B1 VL with S32N, G51Q
B25: SEQ ID NO: 512 (Y61, K at L50) (antibody, V domains shown)
VH: B1 VH
VL: B1 VL with S32N, G51K
B26: SEQ ID NO: 508 (Y61, C at L50) (antibody, V domains shown)
VH: B1 VH
VL: B1 VL with S32N, G51C
B27: SEQ ID NO: 509 (Y61, S at L50) (antibody, V domains shown)
VH: B1 VH
VL: B1 VL with S32N, G51S
B28: SEQ ID NO: 516 (Y61, T at L50) (antibody, V domains shown)
VH: B1 VH
VL: B1 VL with S32N, G51T
B29: SEQ ID NO: 514 (Y61, N at L50) (antibody, V domains shown)
VH: B1 VH
VL: B1 VL with S32N, G51N
B30: SEQ ID NO: 522 (Y61, I at L50) (antibody, V domains shown)
VH: B1 VH
VL: B1 VL with S32N, G51I
B31: SEQ ID NO: 513 (Y61, R at L50) (antibody, V domains shown)
VH: B1 VH
VL: B1 VL with S32N, G51R
B32: SEQ ID NO: 523 (Y61, P at L50) (antibody, V domains shown)
VH: B1 VH
VL: B1 VL with S32N, G51P
B33: SEQ ID NO: 519 (Y61, V at L50) (antibody, V domains shown)
VH: B1 VH
VL: B1 VL with S32N, G51V
B34: SEQ ID NO: 507 (Y61, E at L50) (antibody, V domains shown)
VH: B1 VH
VL: B1 VL with S32N, G51E
B35: SEQ ID NO: 524 (Y61, W at L50) (antibody, V domains shown)
VH: B1 VH
VL: B1 VL with S32N, G51W
B36: SEQ ID NO: 506 (Y61, D at L50) (antibody, V domains shown)
VH: B1 VH
VL: B1 VL with S32N, G51D
B37: SEQ ID NO: 521 (Y61, L at L50) (antibody, V domains shown)
VH: B1 VH
VL: B1 VL with S32N, G51L
B38: SEQ ID NO: 511 (Y61, H at L50) (antibody, V domains shown)
VH: B1 VH
VL: B1 VL with S32N, G51H
B39: SEQ ID NO: 520 (Y61, M at L50) (antibody, V domains shown)
VH: B1 VH
VL: B1 VL with S32N, G51M
B40: SEQ ID NO: 525 (Y61, F at L50) (antibody, V domains shown)
VH: B1 VH
VL: B1 VL with S32N, G51F
B41: SEQ ID NO: 518 (Y61, A at L50) (antibody, V domains shown)
VH: B1 VH
VL: B1 VL with S32N, G51A

In one test the target is T1, human interleukin 12 (p70 heterodimer …). In words: SPR (BIAcore), off-rate. On the technique in general: Surface plasmon resonance follows binding to a sensor surface in real time, without labels.
Take B1: the koff came out at 0.000392 s⁻¹.

The molecule B2 returned a koff of 0.00164 s⁻¹.

The molecule B3 displayed a koff of 0.000318 s⁻¹.

In turn, B4 came in with a koff of 0.000315 s⁻¹.

Regarding B5, the koff was found to be 9.7e-05 s⁻¹.

Regarding B6, the koff is 0.000366 s⁻¹.

B7 yielded an off-rate (koff) of 0.00247 s⁻¹.

Consider B8, for which the koff amounted to 0.000331 s⁻¹.

B9 had a koff of 0.000357 s⁻¹.

As to B10, the dissociation rate constant (koff) was determined as 0.00215 s⁻¹.

In turn, B11 displayed an off-rate (koff) of 0.000309 s⁻¹.

B12 gave an off-rate (koff) of 0.000252 s⁻¹.

Take B13: the koff is 0.00191 s⁻¹.

As to B14, the koff amounted to 0.0069 s⁻¹.

Molecule B15 had a koff of 0.00381 s⁻¹.

B16 gave a koff of 0.00197 s⁻¹.

In turn, B17 yielded a koff of 0.00026 s⁻¹.

In the case of B18, the koff was 0.00191 s⁻¹.

On to B19, for which the off-rate (koff) is 0.000424 s⁻¹.

In turn, B20 gave a koff of 0.00154 s⁻¹.

In turn, B21 came in with an off-rate (koff) of 0.000292 s⁻¹.

As for B22, the off-rate (koff) came out at 0.000213 s⁻¹.

B23 yielded a dissociation rate constant (koff) of 0.000174 s⁻¹.

A further test shares this target. In words: SPR (BIAcore), off-rate. This is another data set of the same source.
On to B24, for which the koff stood at 0.000348 s⁻¹.

The molecule B25 gave a dissociation rate constant (koff) of 0.00243 s⁻¹.

With B26, the koff worked out at 0.000467 s⁻¹.

B27 had an off-rate constant (koff) of 0.000286 s⁻¹.

Turning to B28, the off-rate constant (koff) was 0.000272 s⁻¹.

B29 displayed a koff of 0.000305 s⁻¹.

With B30, the off-rate constant (koff) came out at 0.0012 s⁻¹.

Consider B31, for which the koff was found to be 0.000444 s⁻¹.

Molecule B32 showed a dissociation rate constant (koff) of 0.00041 s⁻¹.

In turn, B33 yielded a koff of 0.000385 s⁻¹.

The molecule B34 returned a koff of 0.000617 s⁻¹.

For B35, the off-rate (koff) worked out at 0.000382 s⁻¹.

On to B36, for which the off-rate (koff) is 0.000348 s⁻¹.

In turn, B37 registered an off-rate (koff) of 0.000616 s⁻¹.

Molecule B38 registered a koff of 0.000761 s⁻¹.

With B39, the off-rate (koff) came out at 0.000953 s⁻¹.

Consider B40, for which the koff is 0.0348 s⁻¹.

The molecule B41 registered a koff of 0.000372 s⁻¹.

The term koff denotes a measure of how fast the partners let go of each other. Lower therefore signals a long-lived complex.
